Results: publication PMC3457783

Target: TRα1PV (mutated thyroid hormone receptor α1 carrying the PV mutation) (UniProt P10827)
Assay: co-IP

Substance: nuclear receptor corepressor, NCoR1 (from UniProt Q60974 1-2453) (natural protein)
- fold NCoR1 co-precipitated relative to TRβ1PV (before induction): 1.6 fold
- fold NCoR1 co-precipitated relative to TRβ1PV (day 6 after induction): 2 fold
